The target in test [1] is cynomolgus CD3 (cynomolgus monkey) (UniProt Q95LI5). The experiment in a line: cell-based or functional assay.
The target is the same in test [2]. Description: FACS titration on purified cynomolgus T cells.
For test [3] the target is unchanged. The experiment in a line: FACS titration of cynomolgus T cells.

B1: BSSTEAP2/CD3-001 (bispecific antibody, IgG4, V domains shown)
VH 1: QVQLQQSGPGLVKPSQTLSLTCAISGDSVSSNRAAWNWIRQSPSRGLQWLGRTYYRSKWYNDYAVSLRSRITINPVTSKNQVALHMNSVTPEDTAVYYCARAGIVVVPGPETFYYYDHGLDVWGQGTTVTVSS
VH 2: EVQLVESGGGLVQPGRSLRLSCAASGFTFDDYSMHWVRQAPGKGLEWVSGISWNSGSKGYADSVKGRFTISRDNAKNSLYLQMNSLRAEDTALYYCAKYGSGYGKFYHYGLDVWGQGTTVTVSS
VL: DIQMTQSPSSLSASVGDRVTITCRASQSIRSYLNWYQQKPGKAPELLIHAASSLQSGVPSRFSGSGSGTDFTLTISSLQPEDFASYYCQQSYSAPPITFGQGTRLEIK
In turn, B1 yielded a Cyno PBMC Proliferation [M] (donor) in test [1] of 4.59e-12 M. Besides, in test [2], the EC50 (usually the concentration that produces a half-maximal response) is 7.27 nM.

B2: CD3-VH-P (antibody, V domains shown)
VH: EVQLVESGGGLVQPGRSLRLSCVASGFTFDDYSMHWVRQAPGKGLEWVSGISWNSGSKDYADSVKGRFTISRDNAKNSLYLQMNSLRAEDTALYYCAKYGSGYGKFYHYGLDVWGQGTTVTVSS
VL: DIQMTQSPSSLSASVGDSVTITCRASQSINNYLNWYQQKPGKAPKLLIYTASSLLSGVPSRFSGSGSGTDFTLTISGLHPEDFATYFCQQSFSTPPITFGQGTRLDIK
In the case of B2, in test [3], the EC50 was 1 to 40 nM.

B3: BSSTEAP2/CD3-006 (bispecific antibody, V domains shown)
VH 1: QVQLQQSGPGLVKPSQTLSLTCAISGDSVSSNRAAWNWIRQSPSRGLQWLGRTYYRSKWYNDYAVSLRSRITINPVTSKNQVALHMNSVTPEDTAVYYCARAGIVVVPGPETFYYYDHGLDVWGQGTTVTVSS
VH 2: EVQLVESGGGLVQPGRSLRLSCVASGFTFDDYSMHWVRQAPGKGLEWVSGISWNSGSKDYADSVKGRFTISRDNAKNSLYLQMNSLRAEDTALYYCAKYGSGYGKFYHYGLDVWGQGTTVTVSS
VL: DIQMTQSPSSLSASVGDRVTITCRASQSIRSYLNWYQQKPGKAPELLIHAASSLQSGVPSRFSGSGSGTDFTLTISSLQPEDFASYYCQQSYSAPPITFGQGTRLEIK
In turn, B3 came in with a Cyno PBMC Proliferation [M] (donor) in test [1] of 1.53e-11 M. The molecule also yielded an EC50 in test [2] of 7.99 nM.

B4: BSSTEAP2/CD3-007 (bispecific antibody, V domains shown)
VH 1: QVQLQQSGPGLVKPSQTLSLTCAISGDSVSSNRAAWNWIRQSPSRGLQWLGRTYYRSKWYNDYAVSLRSRITINPVTSKNQVALHMNSVTPEDTAVYYCARAGIVVVPGPETFYYYDHGLDVWGQGTTVTVSS
VH 2: EVQLVESGGGLVQPGRSLRLSCAASGFTFADYTMHWVRQAPGKGLEWVSDISWNSGSIAYADSVKGRFTISRDNAKNSLYLQMNSLRTEDTAFYYCAKDSRGYGHYKYLGLDVWGQGTTVTVSS
VL: DIQMTQSPSSLSASVGDRVTITCRASQSIRSYLNWYQQKPGKAPELLIHAASSLQSGVPSRFSGSGSGTDFTLTISSLQPEDFASYYCQQSYSAPPITFGQGTRLEIK
B4: the EC50 in test [2] came out at 17.3 nM.

B5: BSSTEAP2/CD3-004 (bispecific antibody, IgG4, V domains shown)
VH 1: QVQLVESGGGVVQPGRSLRLSCVASGFTISSYGMNWVRQAPGKGLEWVAVISYDGGNKYSVDSVKGRFTISRDNSKNTLYLQMNSLRAEDSAVYYCARGRYFDLWGRGTLVTVSS
VH 2: EVQLVESGGGLVQPGRSLRLSCAASGFTFADYTMHWVRQGPGTGLEWVSDIGWSGGSLGYADSVKGRFTISRDNAKNSLYLEMNNLRPEDTALYYCVKDKSGYGKFQYGLDVWGQGTTVTVSS
VL: DIQMTQSPSTLSASVGDRVTITCRASQSISSWLAWYQQKPGRAPNLLISKASSLKSGVPSRFSGSGSGTEFTLTVSSLQPDDFATYYCQQYYSYSYTFGQGTKLEIK
With B5, the EC50 in test [2] stood at 1.99 nM.

Source of the values: patent US20200376136A1.
